{
  "source": "paper PMC7610802",
  "about": "(The Journal of allergy and clinical immunology, 2019)",
  "biological_target": "T1, mouse soluble ST2 (sST2) (mouse, UniProt P14719-2 27-337, N-linked glycans (shown by PNGase F))",
  "T1 sequence": "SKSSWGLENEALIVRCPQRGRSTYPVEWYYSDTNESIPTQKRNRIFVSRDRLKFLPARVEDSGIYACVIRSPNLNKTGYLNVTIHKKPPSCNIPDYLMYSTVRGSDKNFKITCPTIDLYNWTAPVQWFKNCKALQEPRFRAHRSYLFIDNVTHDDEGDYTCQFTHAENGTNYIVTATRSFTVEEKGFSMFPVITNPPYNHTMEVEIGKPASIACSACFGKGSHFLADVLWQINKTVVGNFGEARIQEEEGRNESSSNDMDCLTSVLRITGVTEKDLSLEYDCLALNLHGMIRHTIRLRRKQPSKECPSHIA",
  "test": "ITC",
  "data": [
    {"binder": "mouse IL-33 (residues 109-266) (ligand) SIQGTSLLTQSPASLSTYNDQSVSFVLENGCYVINVDDSGKDQEQDQVLLRYYESPCPASQSGDGVDGKKLMVNMSPIKDTDIWLHANDKDYSVELQRGDVSPPEQAFFVLHKKSSDFVSFECKNLPGTYIGVKDNQLALVEEKDESCNNIMFKLSKI", "values": [
      {"measurement": "Kd", "value": 4.59, "unit": "nM"}
    ]}
  ]
}
